Measured values published in paper PMC3539201 (Journal of cell science, 2008).

T1: torsinA (endogenous, 293T cells) (human (endogenous in 293T), UniProt O14656 21-332)
T1 sequence (looked up): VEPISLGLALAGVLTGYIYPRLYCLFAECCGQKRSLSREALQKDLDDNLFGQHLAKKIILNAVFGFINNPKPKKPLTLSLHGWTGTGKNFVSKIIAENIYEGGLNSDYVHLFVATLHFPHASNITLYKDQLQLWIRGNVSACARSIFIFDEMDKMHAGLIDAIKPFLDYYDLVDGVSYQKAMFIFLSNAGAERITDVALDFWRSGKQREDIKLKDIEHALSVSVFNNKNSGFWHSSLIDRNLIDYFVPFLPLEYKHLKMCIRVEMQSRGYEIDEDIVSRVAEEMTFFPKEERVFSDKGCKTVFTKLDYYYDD

B1: GFP-KASH-1 (domain or fragment)
chain: not shown
B2: GFP-KASH-3α (domain or fragment, mouse, UniProt Q4FZC9 917-975, looked up)
chain: CSLLQKACRVALPLQLLLLLFLLLLFLLPAGEEERSCALANNFARSFALMLRYNGPPPT
B3: GFP-KASH-2 (domain or fragment)
chain: not shown

The binders below were run against T1, torsinA (endogenous, 293T cells) (assay: co-IP).

| percentage immunoprecipitated from lysates by torsinA antibodies [%] | Binder |
| --- | --- |
| 21 | B1 |
| 11 | B2 |
| 12 | B3 |
